Reference: patent US20070036814A1

Assays:
fibrinogen = experiment: cell-based or functional assay
[1] = target: canine fibrinogen (canine) (UniProt P68213); experiment: cell-based or functional assay

Substance | titre in microtitre clumping assay (Newman wild-type) (fibrinogen) [titre] | decrease in attachment of the fibrinogen receptor mutant to ex vivo polyvinyl chloride and polyethylene tubings exposed to canine blood [1] [%] | loss of adherence of the fibrinogen receptor mutant (cIfA::Tn917) to canine fibrinogen coated PMMA coverslips [1] [%] | Inhibiting concentration, inhibition of clumping by lysate (fibrinogen) [micro g]
CIfA protein on the surface of S. aureus strain Newman cells (from UniProt Q53653 40-899) (receptor) | 2048 | > 80 | > 95 | –
glutathione S-transferase fusion protein of CIfA Region A (residues 23-550) expressed from pCF24 (from UniProt Q53653 23-550) | – | – | – | 9.37
glutathione S-transferase fusion protein of CIfA regions R, W and M (residues 546-933) expressed from pCF25 (from UniProt Q53653 546-933) | – | – | – | > 300
glutathione S-transferase fusion protein of CIfA residues 221-550 expressed from pCF31 (from UniProt Q53653 221-550) | – | – | – | 9.37
